Data taken from patent US9322000B2, “Methanol dehydrogenase enzymes from Bacillus” (Sinvent AS, priority 2012, dated 2016).

Test: Alcohol dehydrogenase assay of purified MDH proteins with ethanol as substrate
Assay type: biochemical
Method: Alcohol dehydrogenase activities were measured spectrophotometrically essentially as described previously (Hektor, Kloosterman et al. (2002) Chem 277(49): 46966-46973) and the reaction mixture contained: 100 mM Glycine-KOH pH 9.5 (unless otherwise stated), 5 mM MgSO4, 0.5 mM NAD^+ and 500 mM alcohol (methanol, ethanol, propanol, 1,3-propanediol, or butanol). NAD^+ was substituted with equal concentrations of NADP^+, FMN^+, and FAD^+, when indicated. The reaction mixture for measurements of formaldehyde reductase activity contained: 50 mM Potassium-phosphate buffer pH=6.7, 0.15 mM NADH, 1 mM DTT and 11.6 mM (0.1-116 mM) formaldehyde. The assay components were mixed in the cuvette and pre-warmed to 45° C., unless otherwise stated. The reactions were started by addition of 5-40 μg of the purified MDH proteins, and the production of NADH was monitored at 340 nm for 4 minutes. One unit of MDH activity was defined as the amount of enzyme needed to produce 1 μmol NADH per minute under the conditions described above. Purified Act (0.1-40 μg) or NudF (20 μg) proteins were added to the reaction mixtures as indicated in the text.
In order to establish reliable assay conditions for comparative biochemical characterizations, the six MDH proteins were analysed for pH and temperature optima. […]

B1: Mdh-MGA3: previously reported plasmid pBM19-encoded NAD-dependent methanol dehydrogenase of B. methanolicus MGA3, SEQ ID NO. 8 (protein)
chain: MTTNFFIPPASVIGRGAVKEVGTRLKQIGAKKALIVTDAFLHSTGLSEEVAKNIREAGVDVAIFPKAQPDPADTQVHEGVDVFKQENCDSLVSIGGGSSHDTAKAIGLVAANGGRINDYQGVNSVEKPVVPVVAITTTAGTGSETTSLAVITDSARKVKMPVIDEKITPTVAIVDPELMVKKPAGLTIATGMDALSHAIEAYVAKGATPVTDAFAIQAMKLINEYLPKAVANGEDIEAREKMAYAQYMAGVAFNNGGLGLVHSISHQVGGVYKLQHGICNSVNMPHVCAFNLIAKTERFAHIAELLGENVAGLSTAAAAERAIVALERINKSFGIPSGYAEMGVKEEDIELLAKNAYEDVCTQSNPRVPTVQDIAQIIKNAM
modifications: Bacillus methanolicus MGA3
- stimulation of Mdh activity with NudF (B. subtilis NudF added): about 8 fold
- increase of catalytic activity in the presence of Act (MDH and Act 1:1): about 8 fold
